# Data: publication PMC13013135, “[^99mTc]Tc-PSMA-HSG for PSMA-targeted Hybrid Surgical Guidance: a new addition to the PSMA-I&S/I&T family” (European Journal of Nuclear Medicine and Molecular Imaging, 2025)
# Tests used:
# human serum = experiment: Plasma protein binding (B50), ultrafiltration, human serum; assay type: in vitro ADME
# Method: (§1) A detailed experimental procedure is provided in the Supplementary Material. […] Briefly, protein solutions (maximum concentration: […] Samples were briefly vortexed and incubated for 30 min at 37 °C. […] The filter units were then removed from the centrifugal tubes and washed twice with 300 µL PBS to recover the protein fraction. The activity in the filtrate, filter and protein fraction were then quantified using a γ-counter. […] The percentages of radioligand bound to the respective proteins are represented as means ± standard deviation (SD) of three independent experiments.
# [1] = biological target: human serum albumin (HSA) (Homo sapiens, UniProt P02768); experiment: Plasma protein binding (B50), ultrafiltration, HSA; assay type: in vitro ADME
# Method: as §1
# in vivo = settings: male, NSG, mouse, iv, 1 nmol/mouse, total radioactivity, biodistribution
# Method: As documented in the literature, engineered PC3-Pip cells express particularly high PSMA levels, which are not representative for the situation in human tumors (mean number of PSMA binding sites = 4.9 × 10^6 sites/cell for PC3-Pip cells vs. 5.9 × 10^5 sites/cell for LNCaP [60]). Thus, to correlate quantitative data with in vivo/ex vivo fluorescence signals, a biodistribution study was conducted under the same conditions as the fluorescence imaging. NSG mice bearing PC3-Pip (PSMA+) and PC3 WT (PSMA-) xenografts on opposite shoulders received [^99mTc]Tc-PSMA-HSG (1 nmol), and biodistribution was assessed at 2 h p.i. (Supplementary Table 1). The overall distribution matched previous data from LNCaP-bearing mice (Table 3), but tumor uptake was over twice as high (26.6 ± 5.0%iD/g). Low uptake in PC3 WT tumors (1.6 ± 0.3%iD/g) confirmed PSMA-specificity.
# PC-3 PIP xenografts were established by subcutaneous injection of 5 × 10^6 PC3-PIP cells/mouse using 8–12-week-old male NSG mice (in-house breeding, Dpt. of Oncology, University of Lausanne) as previously described. Tumors reached a size of 4-8 mm in diameter after 5-6 days and were then immediately used for the fluorescence imaging studies.
# [2] = human, in vivo
# Method: [^99mTc]Tc-PSMA-HSG scans were performed using a GE Discovery NM/CT 670 Pro (GE Healthcare, Milwaukee, USA; n = 4) or Siemens Symbia T2 (Siemens Healthineers, Erlangen, Germany; n = 1) system. For dosimetry, planar dynamic whole body scans were performed at 5 min and 1 h after injection with a bed speed of 30 cm/min; and at 3–4 h and 20 h after injection with a speed of 12 cm/min. At 3–4 h and 20 h after injection additional SPECT/CT imaging was acquired. Attenuation maps were generated on the basis of low-dose CT. For a detailed protocol of imaging parameters and the dosimetry protocol please refer to the Supplementary Material.
# The planar and SPECT/CT images per time point were processed using syngo.via (Siemens Healthineers, Erlangen, Germany). Organs were segmented on the accompanying CT of the SPECT/CT of each imaging time point to avoid errors due to misalignment during image registration. Segmented organs included gallbladder, muscle, heart, kidneys, liver, lungs, pancreas, spleen, stomach, and urinary bladder on the SPECT/CT. For bone marrow dosimetry, spherical volumes of interest (VOIs) were placed in lumbar vertebrae L2 to L4 [8]. Salivary glands and their background were manually segmented on the anterior view of the planar whole-body scans. Region-wise image statistics were extracted into spreadsheets including administered activity and the time interval between administration and imaging start.
# Count statistics were converted into units of Becquerel by using the decay-corrected reference activity source that was within the field of view (FOV) of each imaging acquisition. Percentage injected activities per time were entered into MIRDfit v1.01 for fitting the time-activity data. The trapezoidal method with zero activity at time zero and physical decay extrapolation after the last time point was used for the data with only two SPECT acquisitions and monoexponential fitting was used for the three SPECT acquisitions and if the fit R² was greater than 0.97. The salivary glands with available data from four planar images were fitted biexponentially if R² was greater than 0.97. The bladder was modelled in MIRDfit assuming effective half-life, two time points and a 3 h voiding interval. The resulting time integrated activity coefficients (TIACs, unit of hours) were entered in MIRDcalc v1.22 [10] for dosimetry calculations and patient-individual organ masses for kidneys, liver, pancreas, spleen and estimate for red marrow were used for S-value adjustments.
# Chain of human serum albumin (HSA) (P02768 25-609): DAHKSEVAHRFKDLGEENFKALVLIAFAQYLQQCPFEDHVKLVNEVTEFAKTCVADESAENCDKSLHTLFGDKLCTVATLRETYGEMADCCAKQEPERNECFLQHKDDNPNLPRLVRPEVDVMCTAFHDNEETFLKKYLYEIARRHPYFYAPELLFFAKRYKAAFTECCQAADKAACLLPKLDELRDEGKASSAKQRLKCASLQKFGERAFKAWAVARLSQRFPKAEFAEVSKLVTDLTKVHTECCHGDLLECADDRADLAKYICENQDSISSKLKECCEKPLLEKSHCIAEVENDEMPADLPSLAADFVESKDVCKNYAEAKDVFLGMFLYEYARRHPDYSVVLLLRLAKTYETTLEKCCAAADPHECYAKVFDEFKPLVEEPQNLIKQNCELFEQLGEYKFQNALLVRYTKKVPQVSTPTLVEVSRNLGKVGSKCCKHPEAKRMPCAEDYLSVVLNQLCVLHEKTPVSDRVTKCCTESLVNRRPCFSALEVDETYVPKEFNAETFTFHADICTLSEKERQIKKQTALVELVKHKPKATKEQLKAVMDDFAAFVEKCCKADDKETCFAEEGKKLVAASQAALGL
compound,measurement,setting,value
"C[N+]1=C(/C=C/C=C/C=C2/N(CCCCCC(=O)NCCCC[C@@H](NC(=O)[C@@H](CO)NC(=O)[C@@H](CO)NC(=O)[C@@H](CO)NC(=O)CS)C(=O)N[C@H](Cc3ccc(O)cc3)C(=O)N[C@H](Cc3ccc4ccccc4c3)C(=O)N[C@H](CCCCNC(=O)CCCCCCC(=O)NCCCC[C@H](NC(=O)N[C@@H](CCC(=O)O)C(=O)O)C(=O)O)C(=O)O)c3ccc(S(=O)(=O)[O-])cc3C2(C)C)C(C)(C)c2cc(S(=O)(=O)O)ccc21 [[^99mTc]Tc-PSMA-HSG, metal not drawn]",B50 HS,human serum,220 ± 35
same,B50 HSA,[1],273 ± 36
same,tissue uptake at 2 h,in vivo; PC3-Pip tumor,26.6 ± 5 %ID/g
same,tissue uptake at 2 h,in vivo; PC3 WT tumor,1.6 ± 0.3 %ID/g
same,tissue uptake at 2 h,in vivo; blood,2.8 ± 0.4 %ID/g
same,tissue uptake at 2 h,in vivo; heart,1.5 ± 0.3 %ID/g
same,tissue uptake at 2 h,in vivo; intestines,0.9 ± 0.1 %ID/g
same,tissue uptake at 2 h,in vivo; kidneys,100 ± 8.2 %ID/g
same,tissue uptake at 2 h,in vivo; liver,2.9 ± 0.5 %ID/g
same,tissue uptake at 2 h,in vivo; lung,4.1 ± 1.2 %ID/g
same,tissue uptake at 2 h,in vivo; muscle,0.6 ± 0.1 %ID/g
same,tissue uptake at 2 h,in vivo; pancreas,0.9 ± 0.2 %ID/g
same,tissue uptake at 2 h,in vivo; salivary glands,2.2 ± 0.4 %ID/g
same,tissue uptake at 2 h,in vivo; spleen,8.2 ± 0.7 %ID/g
same,tissue uptake at 2 h,in vivo; stomach,1.5 ± 0.1 %ID/g
same,Absorbed dose coefficient of salivary glands from planar images,[2],0.007 ± 0.004 mGy/MBq
same,"Absorbed dose coefficient of salivary glands from planar images, max",[2],0.013 mGy/MBq
same,"Absorbed dose coefficient of salivary glands from planar images, min",[2],0.005 mGy/MBq
same,"Absorbed dose, Brain",[2],0.000 mGy/MBq
same,"Absorbed dose, ET1 airway basal cells",[2],0.000 mGy/MBq
same,"Absorbed dose, Eye lens",[2],0.000 mGy/MBq
same,"Absorbed dose, Lymph nodes - extrathoracic",[2],0.001 mGy/MBq
same,"Absorbed dose, Tonsils",[2],0.001 mGy/MBq
same,"Organ TIAC, Bone marrow - red (active)",[2],0.412 h
same,"Organ TIAC, Gallbladder content",[2],0.015 h
same,"Organ TIAC, Heart content",[2],0.164 h
same,"Organ TIAC, Lungs",[2],0.360 h
same,"Organ TIAC, Muscle",[2],1.230 h
same,"Organ TIAC, Pancreas",[2],0.035 h
same,"Organ TIAC, Spleen",[2],0.096 h
same,"Organ TIAC, Stomach content",[2],0.090 h
same,effective dose for a typically injected activity,[2],7.9 mSv
